Data from publication PMC4974476, “Structural basis for LIN54 recognition of CHR elements in cell cycle-regulated promoters”.

Experiments:
[1] = biological target: T1, LIN54 DBD (Homo sapiens, UniProt Q6MZP7 515-646); assay: fluorescence polarization; ITC (25 C) and FP: 20 mM Tris, 150 mM NaCl, 0.1% Tween 20, pH 8.0; NMR: 35 mM MES, 75 mM NaCl, 5% D2O, pH 6.0, 25 C; conditions: protein: recombinant, tags: N-terminal GST with TEV site, cleaved, blunt
[2] = biological target: T2, LIN54 DBD-C (Homo sapiens, UniProt Q6MZP7 589-646); assay: as above; conditions: protein: recombinant; tags: N-terminal GST with TEV site, cleaved; label: 3' TAMRA on strand 1; blunt
T2 sequence (Q6MZP7 589-646): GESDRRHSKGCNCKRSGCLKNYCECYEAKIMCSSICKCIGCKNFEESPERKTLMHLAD

[3] = biological target: LIN54 DBD-N (Homo sapiens, UniProt Q6MZP7 515-574); assay: as above; conditions: protein: recombinant; tags: N-terminal GST with TEV site, cleaved; label: 3' TAMRA on strand 1; blunt
Chain of LIN54 DBD-N (Q6MZP7 515-574): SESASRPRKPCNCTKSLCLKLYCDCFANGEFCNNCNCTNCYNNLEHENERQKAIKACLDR

[4] = biological target: T2, LIN54 DBD-C; assay: NMR HSQC titration; 35 mM MES, 75 mM NaCl, pH 6.0, 25 C; ITC (25 C) and FP: 20 mM Tris, 150 mM NaCl, 0.1% Tween 20, pH 8.0; NMR: 35 mM MES, 75 mM NaCl, 5% D2O, pH 6.0, 25 C; conditions: protein: recombinant; tags: N-terminal GST with TEV site, cleaved; blunt
[5] = biological target: LIN54 DBD Y536R (Homo sapiens, UniProt Q6MZP7 515-646, Y536R); assay: ITC; ITC (25 C) and FP: 20 mM Tris, 150 mM NaCl, 0.1% Tween 20, pH 8.0; NMR: 35 mM MES, 75 mM NaCl, 5% D2O, pH 6.0, 25 C; conditions: protein: recombinant; tags: N-terminal GST with TEV site, cleaved; blunt
Chain of LIN54 DBD Y536R (Q6MZP7 515-646 Y536R): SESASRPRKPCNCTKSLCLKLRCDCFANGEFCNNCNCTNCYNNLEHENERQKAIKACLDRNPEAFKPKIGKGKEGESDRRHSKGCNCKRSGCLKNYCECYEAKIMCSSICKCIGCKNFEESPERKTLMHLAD

[6] = biological target: LIN54 DBD Y536A (Homo sapiens, UniProt Q6MZP7 515-646, Y536A); assay: as above; conditions: protein: recombinant; tags: N-terminal GST with TEV site, cleaved; blunt
Chain of LIN54 DBD Y536A (Q6MZP7 515-646 Y536A): as the sequence (Q6MZP7 515-646 Y536R) above, with R22A counted along it

[7] = biological target: LIN54 DBD Y610R (Homo sapiens, UniProt Q6MZP7 515-646, Y610R); assay: as above; conditions: protein: recombinant; tags: N-terminal GST with TEV site, cleaved; blunt
Chain of LIN54 DBD Y610R (Q6MZP7 515-646 Y610R): as the sequence (Q6MZP7 515-646 Y536R) above, with R22Y, Y96R counted along it

[8] = biological target: T1, LIN54 DBD; assay: as above; conditions: protein: recombinant; tags: N-terminal GST with TEV site, cleaved; blunt
[9] = biological target: LIN54 DBD Y536F (Homo sapiens, UniProt Q6MZP7 515-646, Y536F); assay: as above; conditions: protein: recombinant; tags: N-terminal GST with TEV site, cleaved; blunt
Chain of LIN54 DBD Y536F (Q6MZP7 515-646 Y536F): as the sequence (Q6MZP7 515-646 Y536R) above, with R22F counted along it

[10] = biological target: LIN54 DBD Y610F (Homo sapiens, UniProt Q6MZP7 515-646, Y610F); assay: as above; conditions: protein: recombinant; tags: N-terminal GST with TEV site, cleaved; blunt
Chain of LIN54 DBD Y610F (Q6MZP7 515-646 Y610F): as the sequence (Q6MZP7 515-646 Y536R) above, with R22Y, Y96F counted along it

[11] = biological target: LIN54 DBD Y610A (Homo sapiens, UniProt Q6MZP7 515-646, Y610A); assay: as above; conditions: protein: recombinant; tags: N-terminal GST with TEV site, cleaved; blunt
Chain of LIN54 DBD Y610A (Q6MZP7 515-646 Y610A): as the sequence (Q6MZP7 515-646 Y536R) above, with R22Y, Y96A counted along it

T1 sequence (Q6MZP7 515-646): as the sequence (Q6MZP7 515-646 Y536R) above, with R22Y counted along it

B1: CHR27 (dsDNA)
DNA 1: CCTTTAGCGCGGTGAGTTTGAAACTGTAA
DNA 2: TTACAGTTTCAAACTCACCGCGCTAAAGG
Kd ([1]; label: 3' TAMRA on strand 1): 0.43 ± 0.08 µM | binding result [2]: no binding | binding result [3]: no binding

B2: CHR13 (FP) (dsDNA)
DNA 1: GAGTTTGAAACTG
DNA 2: CAGTTTCAAACTC
Kd [1]: 5 ± 2 µM

B3: CHR13 (dsDNA)
DNA 1: GAGTTTGAAACTG
DNA 2: CAGTTTCAAACTC
Kd [4]: 500 ± 100 µM | binding result [5]: no binding | binding result [6]: no binding | binding result [7]: no binding | Kd [8]: 2.8 ± 0.1 µM | binding result [9]: no binding | binding result [10]: no binding | binding result [11]: no binding
